Source: the domain aggregation screens of Martell et al. (2025)

Test: soluble fraction after stress (log2 fold change); higher = more stays soluble; pooled small domains, quantitative proteomics
Conditions: stress: 75 degC
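Also: 20 min heating vs room temperature control held 20 min.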

Sequence	soluble fraction (log2)
HMAAEGARNNSLFNSLRERALEVSSHNELEQIAFKMNETNIPPLRASEVISVVNSVWKNRISNQIIP	0.266
HMAAFGDLLSELRRDMNMTQDELAKVLFVSPGTISNYENNIHFPDVPKLKQIAQYFGVTTDYLLG	-0.519
HMAAINTYQVRKIYAIAGALGMKSRDGDDALHDLVFGMTGKQHISGLTSAEAYDVIAELEKKQ	-1.6
HMAALKVAVLTVSDTRTQETDTSGAFLEGALREAGHEIADRQIVIDDVYQLRAIVSQWIADPEVEVILT	-0.121
HMAALTADEAKQIALKHAGVAESDVQRLKVEQDRDDGRLLYEVEWDVGRTEYSYEIDANTGDILNYEKDV	-0.000944
HMAANKIDEDRNTELLQVIQNKFPDADAATKKSVKEIMKEHDIPNFKNADDIPTAVLEQIVKVLNQ	-0.378
HMAAPLTDRETEVLTLLARGLINKQIAEELHIGLTTVITHRRNIMEKLRVRSLAELILRAVAAGYVDAGR	-1.79
HMAARKDLIAGEDAEGRLDAWLAAALDGEFSRNRVKALIEQGAVAINDVAVTEPKRKIRPGDRLSIVLPEP	0.325
HMAARLMRALIPYAQGGLLAKLHEDGQVLSEEYTGEGIEVKALADEQLFGRLTVQLGEQAVSWQD	-0.163
HMAASTPGTVTGSVVNVRPDPSTNNDRIGVIYQGTKVEILAQVGEWYNIQFGPVSGWVHKDYISTGA	-0.421
HMAATISPEIQAEAEKAAALGVESIKNFMASLKEKNPEQHALFSDSEKRRLYAIARKADLNTTQQG	0.595
HMAAVPQPQRSETIVYIGGRKFYVHTVQAGETLYSIARLYGVSEQTLVANNPTMADVVKADQNVRIPVPA	-1.96
HMAAYRLIPLGNSNKDFETYQEAIQYMRDKLDESSKAFEEGKQNWVYSGRVYGVPWSDGRTTFTVDLVPKV	0.594
HMADASVTAYFKIAEDRLQGRLPDTFSEASLKARYQLTPAQLTAVLTRIAQEGWAERKPGYGWAFSSML	-1.62
HMADEIMYPVQVNGKVRAEIFVAADQSKNKELVLEMAKSEERVQKYLEEGNLIKEIFVPGRIVNLVI	0.162
HMADEIQIGLQKAIQSLPEKQKLVFSMRYYDEIPYDEMSKILDMSVGTLKTNYHYAKQKIEDFLQNH	-1.22
HMADFIGMNATVTERIFPQGFGRISFVYEGNSISEPARSEDGKEIPTGTSVVVLEVRDKVYIVQPL	-2.35
HMADGDIIPEGQRDATLASLAGSMRARGMTEAEILAALQVTNETRVRPPMALADLERIARSIGRYEPGK	0.0569
HMADKGTITNQQEKILKALILFPEGASIEEIQKAADLGIDKRQFQRRLNTLIESGQINRTGKSRGTKYHTI	0.201
HMADLKVGFVHRAGSVLERELDDVLEALEMYRSALAIDPSHKPSLDALTRISQLADYREQAAEILEPLPR	-0.767
HMADLNFHQQIRSLPPEQQEILLLRFGQELTLRQIAQVTGVPLRTVQSRLRAALKKLKSQLEKEE	-0.696
HMADLPQATALADVKGDVQMQGIQFGYDPEKIIIHDLNLHARPGSLVAIVGPTGAGKTTIINLLMRFYD	-1.75
HMADLVYLRKRLQDAIAQLPEDMRTAYTLFQIARRSIREIAELTGASESLVKVRIHRAKGKLQELLEDLR	-2.57
HMADPAVLIAELFRAMPEKRFSVKNLISATGAETREQKDYVREVVHSLSREGMIEQVAEGKYRLSASE	0.299
HMADQVLVMTRAVGQGDIVRNADIGLTSVAVDRAVATIPASQLDKIVGRHALVDLSPGQLLGSHSVGE	0.147
HMADRDKYIIMGQQLLRAAFEHFGKKATDKALENAANKLRISDVPELYARLGSAELQPRDVINVIFPD	-0.308

Sequence	soluble fraction (log2)
HMADRLITLSEVASLLRVSRHTVQAWISPSSPNHRPEFAIMARHAGRRTVFIEAEVTAWLDQRRG	-2.14
HMADVSPEAQHKMVEAFAQFGVTKEHIEQRIQRRLDAIQPAQMVTLKRIFASLRDGMSTPAEWFE	-0.639
HMADYSGYLGKKGKVIAPLRPAGTALIDGERVDVVSFGDYIDKDSEIEVVKIEGSKLLVKKY	0.28
HMAEAIVMSTAAPVKSSPDPQSKDIFVLHEGTKVAVGDSLGDWREIRIADGNKGWVLVSAIEMI	0.0397
HMAEDGNMTFEEYAKRWLARQVRYAPSTLESYRRMLGRVYPFIGAIPINRLRPIALENLLAELRKRT	-0.582
HMAEEFESMTEARRLELARLVDSRGFVRVTDAAEELGVSDVTIRGDLSELERRGLLTRVHGGAMPVT	-0.00431
HMAEKEYYYATDALNLRQGPGMEHTVKGEVVLGERVALLGLEGKWAKIQNAQGTTGYVFSAYLAPS	-0.196
HMAEMLENQLKHAKSKQEANEYIAAAIGGVSDDDPDKEYLVAAYNEISKEFHHSSAYHRLPDT	0.16
HMAEMRYLDQIYEVNVPLPDLSLEDGDLLARWAVNFHQRYEELFSYRQSDQEIRLVTLRVTVLGELP	-0.65
HMAENMNAALRVSSLINQIGTVNAKAKDRIESARKAYDALSEAQKAYVANLTTLETAETSLSKL	0.0786
HMAENTIPSVIGKTLSDATFLLESYGYERGGVSEEYSEMPKGVVIRQSPQAGSSADPGTKVNLVVSLGEEI	0.538
HMAENTKKWDETGRRYRSYIKLEKRLSENTVESYMRDYMQFAHFILRQWDVAPHKVEPQMVERYMAWLYER	-0.795
HMAEPIAAGKYTVSTSGSVLNMRVSPDADSQVLEKIPNGTIVEVTKSVLGWAYVTYNSAQGWVSSAYLV	-1.62
HMAEPLMTQIVEIEYADAEGLRENLEQFLTRLDEKTLLGSVLVDRHTNSLIIQAVRSDLERMLPLIETLDR	-0.804
HMAEPLYKQVKNKIIQNLTSDEWKPGSVIPSETKLAETYGVGVSTIRMAIGELVAARILIRRQGKGTFVSS	-2.1
HMAEQDILQSVYPHIGGQDNVSRTISRNGTLYLMLKDASAVDLKAVKQVPGIADAALERGRLTLQLEE	-0.203
HMAEQLGNSRTANMVMLGAMIERTGVISIDSAMEALKATFGPKKEHLLPINRQAMEAGAAAARAV	0.104
HMAERVWASLLEIKNAVAIEDAKTLEDVDNSEKIAEERIAALNDDAKHPLAIAFIGKLRQDIAEKKIELA	0.413
HMAESSPYTVRPGDTLWKILAQTQNARYNDFPYLYRKFRELNPNITDLNHIVSGQKIIVPHIPG	-0.331
HMAESTRSRILNAAIEMMETGGESSVRLSAIAEALGIKEPSIYHHFTNRTELVNAAYIEWYW	-1.07
HMAEVDREEALRIALAHAAVARRDVRNLKIERGEENGVPVYKVEFETAFGDFDVAVSRRSGDVVDAD	-0.0382
HMAEVIYGAGKTPAQMLGILRTMQAHGQKTVLITRLREEAAEEIGREIPLQYDKTAGVGIVGTLPQPDG	-0.102
HMAEVPSLIGKSLDAAKQAIIDAGFKVGSVSYDNSDSYGKGQVMWQQYEPSTKVKKGSSISIKVSKGS	-0.00107
HMAEVRTLLVPIELAGMRFDQVLAELLPEFSRSRLAAWIKSGDALLDGHDAKPKGVVRGGEQIEIRLA	-0.0127
HMAFAVWVKLVAIGPNYAQLEIEQGTQRNVRTLRPGDDAPEGVRLLSLTPTHAEVQANGIARKLALGQGMA	-3.22
HMAFDESLVRSIQELLSELGYSPGKIDGLLGAKTVAAIKAFELEINKDQLTGEPSEELLIALQLAIRSSKM	-1.81

Sequence	soluble fraction (log2)
HMAFDGIVLKNITNALKELINGKINKIQQSSKDNLTLSIYNQKSYNLYIDISANNYRVNLTTHSE	0.126
HMAFDYETYQLTSREFSIIELVADGRSNREIAEALYLGEGTVRNYLSSILEKLELRDRTQLAVFFYQHL	-2.3
HMAFIEIMTEGDADGRGFQYPIPTYSITRDFDWSETENNKLLFEMTAKYGTPYFSNYINSDMEPSDV	-1.13
HMAGAITEREVEVLELLSRGLGNKEIAKELFVSEATVKSHLSHIYTKLAVDTRAGAVAAAIERRIIRAWR	-2.99
HMAGASQAVKAQLRLREMILAGELPGGARIAELTLVEKLGVSRTPIRAALMRLEQEGLLHRLPGGGYAVRT	-2.27
HMAGDDEIEKIAQDILAAWPDKVAAYQAGNKGLMGLFMGELMKKSQGKANPKVASGIIQKLLD	0.0201
HMAGEDPANLELMRLMDEEYMEHPTKGVLGMVDFLRALGILTGPKRVRRLLRKMGIMAIYPK	0.159
HMAGGVFELTGKVTADAKAGDLVYVKAATGAGTKPVVTTVKTGADVIIGWLKEPVSSASVDQKMQVVLA	0.267
HMAGITLHAEEGRVRIRSQSEGLVKVLDAMGREQASWPLRSKGWWFFLTEGWAPGTYFVKTESGETQRFLV	0.274
HMAGNNTATKEIAELLIAKGADVNAMNLSPPGREIGGMTPLDMAILGNRNEIADLLRKHGGRTQKELKAE	0.262
HMAGPGAEVVDRLIAVLTGERPATAADQVLLSILKGLGIGGVVLPSERTGLGWSGLYQRVKEITDMN	-1.61
HMAGPRRRLLDAAIDRAAERGLGDLSLRALAEELGTSHRMLSHHFGSKDGLWLAIVEEVERRQ	-1.08
HMAGSTAASKHALALLNTARHSIRDGNLTSAAAEIKQALATSQEQIVITEARSLMTAMEARATTRRATVLQ	-0.41
HMAGTAMRATTAVNVRSGAGTNYSRIGLLQAGEQIQALSSKNGWTQVSYKGRTGYVASAYLASL	-2.57
HMAGTGKVNTGVANVRSGPGTNYEISGKIYADTEVSILETSNGWYKIKFGNLTGWMSGTVLDIK	-0.902
HMAGTPAVVKWFNPTKGFGFVTPREAGSDALLHASVLAKQGKRWLQEGTVVEVVLEEGPKGLVVSEVLTIE	-0.457
HMAGWMPGGTNPAEPGRFAVLMDVDDSDAYKHMFLRWNGHAWEFERTRVLVKMEPSWWMRLPDDPEKP	-3.16
HMAHKRVDGTIVTPLTADTIVLRTGTHGEQPFEIRDTTRHKLESLQKGDMVILLIDTDNKVIDVAIPP	0.373
HMAHYYVRNGYYYYQRRIPLDLRKFYSGANIKASLKTKDPAIAALFVAKFDRQYDAEFAQRRLNPD	-0.533
HMAIELIDLIKNPETAPFSKLKYLKWMPEAEVTGFFNNLFQLNVTARETGDWSTVDKFLEDEGDRIAAQVA	-0.0284
HMAIEMSTITKRVTSTGEIRYRALLQIRREDVNYTESRTFSKKSLAEAWLKKREVELEANPELLHQ	-3.44
HMAIGERIRFLRTLRRMTQKELGLAAGFPEKNASIRMAQYENGTRTPKAELTAVLAEILKVSPQALTV	-1.52
HMAIKNKNEQLEAIIKFADLRGEFKTADIEELLSIKSSRARLLISELVKIGKLESIGSNRNRRYHIK	-0.974
HMAIKTGAVTGHGVKVRKGPSTNEKAIHDVLYGSRLQILEEKNGFLKAKFEDGTTGWISKQFVTTTDKNLL	-0.0233
